Reference: article PMC11357992, “Non-invasive mapping of systemic neutrophil dynamics upon cardiovascular injury” (Nature Cardiovascular Research, 2023)
Several values for one entry are separate records, joined by “and”; a condition that tells them apart may be missing. Identical values can stand only once. Where no end group is shown, it is not given here. Side-chain parts run from the residue outwards. rhodamine‑labelled PEGylated perfluoro‑15‑crown‑5 ether nanoemulsion = not defined here; carboxyfluorescein = N-terminal fluorescence label (CF)

What was measured:
[1] = Dynamic light scattering and ζ potential of PFCs; assay type: physicochemical; details: panel B raw data, single replicates #1-#6
Description: Dynamic light scattering and the ζ potential were measured as described previously[9],[32] at 25 °C using a Nanotrac Wave II analyzer (Microtrac) driven by Microtrac FLEX Software 3.4.
Extended Data Fig. 8 Physicochemical properties and cellular uptake of ^hNPPFCs. a, Cellular uptake of ^hNPPFCs by human monocyte subsets and neutrophils: Human immune cells isolated from the blood of healthy volunteers were incubated with ^hNPPFCs. Subsequently, cells were stained with CD11b, CD14 and CD16 to differentiate between neutrophils (red), classical monocytes (gray) and non-classical monocytes (blue) and the cells were analyzed by flow cytometry. The cellular uptake of ^hNPPFCs was determined under unstimulated conditions (top) and after treatment with 1 µg/ml LPS (bottom). b, Physicochemical properties of the generated nanotracers: Characterization of size, size distribution and ζ potential of ^MalPFCs and targeting PFCs (^hNPPFCs, ^ConPFCs) by dynamic light scattering (DLS). The rhodamine fluorescence signal of the PCS was determined by IVIS imaging and the ^19F content by ^19F MRI. c-e, Cryo transmission electron microscopy of the generated nanotracers: c, Cryo transmission electron microscopy (cryo-TEM) of ^hNPPFCs and ^ConPFCs. Graphs: The diameter of the PFCs was determined manually from three images categorized into 25 nm groups. […] Data are derived from three images for ^hNPPFCs and ^ConPFCs each. d, Box plot (box and whiskers; min to max) of the diameter of ^ConPFCs/^hNPPFCs calculated from cryo-TEM images. e, Relative amount of liposomes (%) in individual cryo-TEM images. The number of PFCs and liposomes was manually determined (n = 4/5 images). Red arrows in the cryo-TEM images indicate liposomes. Data are mean values ± SD of n = 5-6 (a), n = 3-6 (b), n = 3 (c), n = 3 (d) and n = 6 (e) independent experiments; *** = p < 0.001, verified by one-way ANOVA (a). Source data

[2] = system: CD177+ and CD177- neutrophils; test: hNPPFC uptake by CD177+ and CD177- neutrophil subpopulations, flow cytometry; assay type: cell-based, human; details: latter = CD177+
Description: Fig. 5 Specific targeting of human neutrophils by ^hNPPFCs. a, Uptake of ^hNPPFCs (red) or ^ConPFCs (gray) by human lymphocytes, monocytes or neutrophils over time as determined by flow cytometry. **P < 0.01. b, For MRI analysis, human immune cells were incubated with ^hNPPFCs (top row) or ^ConPFCs (bottom row). After several washing steps, cells were purified by density gradient centrifugation and analyzed by MRI. First column, ^1H MR image of the centrifugation tube with the cell layer (arrow) on top of the dark Percoll layer; second column, ^19F MR image of the same area; third column, merge of both datasets. Quantification of the ^19F data is shown on the right. c, hNP was conjugated to the pH-sensitive dye pHrodo, incubated with neutrophils at 4 °C (blue) and 37 °C (red) and analyzed by flow cytometry. d, Confocal microscopy of neutrophils incubated with ^hNPPFCs (top) or ^ConPFCs (bottom). Fluorescence signals of PFCs (rhodamine; Rho) as well as ligands (carboxyfluorescein; CF) were recorded, and nuclei were counterstained with 4′,6-diamidino-2-phenylindole (DAPI) (blue). […] At distinct time points, uptake of ^hNPPFCs was determined by flow cytometry. f, Human blood immune cells were incubated with ^hNPPFCs followed by staining for CD177 and flow cytometry. […]

murine neutrophils = test: 19F MRI of isolated murine neutrophils incubated with mNPPFCs/ConPFCs; assay type: cell-based, mouse; details: 4 × 10^6 bone marrow neutrophils incubated 3 h at 37 °C with 50 µl PFCs; individual experiments
Description: A total of 4 × 10^6 neutrophils isolated from bone marrow with the EasySep Mouse Neutrophil Enrichment Kit (Stemcell Technologies) were resuspended in 1 ml DMEM and incubated for 3 h with 50 µl ^mNPPFCs or ^ConPFCs at 37 °C. Afterward, cells were washed three times with PBS, fixed with PFA, pelleted by centrifugation and analyzed by ^1H/^19F MRI.
Extended Data Fig. 2 Specific targeting of neutrophils by ^mNPPFCs. a, Flow cytometric analysis of murine blood leukocytes incubated with ^mNPPFCs over 80 min illustrating their predominant uptake by neutrophils (red) as compared to monocytes (blue) and lymphocytes (gray). b, To further validate specificity, binding of CD177 mAb as well as incorporation of ^mNPPFCs under basal and LPS-stimulated conditions were determined. Almost no binding/uptake into classical or non-classical monocytes as well as macrophages or eosinophils could be detected. […] Subsequently, cells were analyzed by ^1H/^19F MRI. Left: ^1H/^19F MRI of centrifugation tubes with neutrophils treated with ^mNPPFCs (lower panel) or ^ConPFCs (upper panel). […] Quantification of ^19F signals (4th column) clearly indicate substantial stronger ^19F uptake in ^mNPPFC-treated neutrophils (red) compared to cells incubated with ^ConPFCs (gray); a.u. = arbitrary units. […]

hNPPFCs: PEGylated rhodamine-labeled perfluorocarbon nanoemulsion coupled with human neutrophil-specific peptide hNP (carboxyfluorescein-DLVTSKLQVGGGC; also: C-terminal Cys coupled via maleimide-PEG2000-DSPE to rhodamine-labelled perfluorocarbon nanoemulsion)
PDI ([1]; dynamic light scattering): 0.08 and 0.07 | Size ([1]; dynamic light scattering): 91.7 and 97.8 and 100.7 and 101.3 and 102.8 and 95.3 | zeta potential [1]: -30.64 and -34.35 and -35.76 and -32.06 and -35.94 and -33.07 | labeling of CD177− versus CD177+ neutrophils [2]: only the latter population could be labeled

mNPPFCs: PEGylated rhodamine-labeled perfluoro-15-crown-5 ether nanoemulsion (maleimide PFCs) coupled with murine neutrophil-specific peptide mNP (carboxyfluorescein-DFYKPMPNLRITGGGC([maleimide‑PEG2000‑DSPE-rhodamine‑labelled PEGylated perfluoro‑15‑crown‑5 ether nanoemulsion]); reading uncertain; also: printed as DFYKPMPNLRIT-GGG-C)
19F signal of neutrophil cell pellet (19F MRI) (murine neutrophils): 349357 a.u. and 181876 a.u. and 297311 a.u. and 383564 a.u. and 306579 a.u.
